Measurements reported in the MegaScale stability set (Tsuboyama et al. 2023).

B1: r4_43_TrROS_Hall (parent)
chain: DLVTIKVPLENLEEIKKAAEKAGFKIVSISYDKENKEVTIVIEKKK

Variants of: B1
Assay: folding stability dG (cDNA display proteolysis); higher = more stable
Details: PBS, room temperature

Folding stability dG [kcal/mol] of substitutions, site by site:
E13: T 3.46; G 3.63; N 3.6; Q 3.6; I 3.69; F 3.99; W 4.08; Y 3.77; L 3.9; S 3.54; P 3.52; D 3.64; K 3.62; M 3.68; H 3.55; V 3.61; R 3.2
I26: A 2.13; E 1.75; T 2.76; S 1.81; K 1.31; N 1.35; Y 2.52; M 3.31; P 1.96; R 1.21; D 1.25; V 3.41; F 3.31; W 3.12; G 0.98; L 3.59; C 3; H 1.53; Q 2.02
G23: I 2.98; T 3.23; C 3.84; R 3.52; D 2.75; E 3.18; S 3.28; N 3.44; Y 3.44; F 3.61; H 3.79; Q 3.51; L 3.52; A 3.54; P 2.92; M 3.46; K 3.73; V 2.78; W 3.67
K25: A 3.12; P 2.05; D 2.73; F 3.9; M 3.63; E 3.04; H 3.2; Q 3.29; Y 3.88; C 3.06; G 2.89; R 4.04; I 3.56; L 3.05; N 3.34; V 3.08; T 3.58; S 3.58; W 3.57
S30: M 3.49; R 3.62; G 3.22; E 3.4; P 0.669; Q 3.47; L 3.74; H 3.68; A 3.4; T 3.66; V 3.96; K 3.59; C 3.53; I 3.66; F 3.9; N 3.79; D 3.5
E14: L 3.53; H 4.06; Y 3.75; G 3.86; P 3.95; T 3.76; V 3.71; D 3.68; F 3.99; Q 3.56; W 3.86; M 3.89; I 3.71; N 3.83; A 3.78; S 3.7; C 4.03; R 3.78; K 3.43
K17: F 4; L 3.73; I 3.8; V 3.69; R 3.43; M 3.82; C 3.75; A 3.56; T 3.65; D 3.44; Q 3.75; G 3.73; P 2.14; H 3.83; N 3.17; E 3.45; Y 4.27; S 3.72; W 4.21
A18: D 3.57; P 1.8; L 3.55; M 3.94; Q 3.62; K 3.86; I 3.67; H 3.77; N 3.5; W 4.29; V 3.73; R 3.72; S 3.65; E 3.65; G 3.34; Y 3.84; C 3.97; F 3.45; T 3.43
V27: G 2.59; F 3.87; I 3.57; W 4.34; D 2.75; L 3.51; C 3.64; P 1.89; T 3.77; H 3.96; Q 3.48; K 3.96; S 3.35; A 3.48; M 3.99; N 3.24; Y 4.35; E 2.88; R 3.96
K21: F 4.43; S 3.93; T 3.9; P 2.74; M 4.03; G 3.83; N 3.42; V 3.93; Y 4.25; L 3.57; C 3.87; E 2.94; Q 3.9; W 4.37; R 4.07; A 3.79; I 3.93; H 3.78; D 3.16
I15: E 3.39; A 4.01; G 3.06; W 4.14; S 3.41; N 3.08; L 3.71; F 4.13; V 3.87; H 3.73; K 3.37; M 3.42; R 3.42; C 3.45; P 1.54; Q 3.58; Y 3.88; D 2.44; T 3.38
A19: T 3.8; W 3.99; L 3.69; E 2.89; H 3.45; I 3.61; N 3.55; V 3.97; C 3.44; K 3.32; R 3.11; G 3.23; Y 3.68; P 1.44; M 3.95; S 3.69; Q 3.37; F 3.52; D 1.76
I29: T 3.56; F 4.07; K 2.44; R 2.47; A 3.16; Y 4.25; S 2.98; E 3.18; G 1.61; W 3.93; N 1.97; Q 3.28; V 3.67; D 1.72; M 3.79; L 3.85; H 2.76
A22: G 3.52; N 3.54; Q 3.62; S 3.56; Y 3.95; L 3.66; F 3.67; T 3.33; P 2.38; H 3.64; D 3.13; C 3.79; W 4.33; I 3.67; K 3.58; R 3.68; E 3.2; V 3.75; M 3.68
S28: V 3.22; L 3.18; P 2.51; C 3.69; F 3.77; T 3.48; D 3.02; Y 3.88; W 3.88; Q 3.48; R 3.88; N 3.42; E 3.18; G 3.53; A 3.71; K 3.52; I 3.39; M 3.28
E20: N 3.55; R 3.72; M 3.72; H 3.6; C 3.67; Q 3.28; A 3.68; T 3.27; F 4.07; W 3.99; Y 3.92; V 3.56; L 3.96; S 3.66; P 3.12; D 3.49; G 3.43; K 3.62; I 3.65
K16: F 3.62; I 3.9; H 3.29; T 3.88; P 1.97; Q 3.57; L 3.61; Y 4.02; E 3.29; W 3.8; G 3.4; N 3.35; C 3.47; R 3.37; S 3.58; A 3.75; D 2.66; M 3.58; V 3.6
F24: Y 3.53; K 2.51; L 2.8; W 3.68; T 2.88; S 2.69; N 2.56; R 2.77; V 2.74; E 2.85; A 3.19; D 2.47; P 1.47; I 2.52; G 2.74; M 2.55; Q 2.5; H 2.73
